From paper doi:10.1101/2025.08.06.668938 (bioRxiv, 2025)
Substitutions are numbered along the chain they refer to.

B1: adalimumab VH paired with LICHEN-3 light sequence (pairing_CDRs) (antibody, V domains shown)
VH: not shown
VL: DIVMTQTPPSSPVTLGQPASISCRASQGIRNYLAWYQQKPGQSPKLLISAASTLQSGVPSRFSGSGSGTDFTLKISSLQPEDVATYYCQRYNRAPYTFGQGTKLEIK
notes: as the VH of m3 (native VH of adalimumab); Whole antibody; also called LICHEN-3 (adalimumab)
B2: adalimumab VH paired with LICHEN-5 light sequence (pairing_CDRs) (antibody, V domains shown)
VH: not shown
VL: EIVLTQSPATLSLSPGERATLSCRASQGIRNYLAWYQQKPGQAPRLLIYAASTLQSGIPARFSGSGSGTDFTLTISSLEPEDFAVYYCQRYNRAPYTFGQGTKLEIK
notes: as the VH of m3 (native VH of adalimumab); Whole antibody; also called LICHEN-5 (adalimumab)
B3: adalimumab VH paired with germline IGKV7-3*01/IGKJ1*01 with the adalimumab light CDRs grafted (antibody, V domains shown)
VH: not shown
VL: DIVLTQSPASLAVSPGQRATITCRASQGIRNYLAWYQQKPGQPPKLLIYAASTLQSGVPARFSGSGSGTDFTLTINPVEANDTANYYCQRYNRAPYTFGQGTKVEIK
notes: as the VH of m3 (native VH of adalimumab); germline V-gene IGKV7-3*01 combined with J-gene IGKJ1*01, all three light CDRs of adalimumab (Kabat definition) grafted; Whole antibody; also called Germline-3+ (adalimumab)
B4: adalimumab VH paired with LICHEN-2 light sequence (pairing_CDRs) (antibody, V domains shown)
VH: not shown
VL: DIQMTQSPSFVSASVGDRVTITCRASQGIRNYLAWYQQKPGKAPEVLISAASTLQSGVPSRFSGSGSGTEFTLTITNLQPEDSATYFCQRYNRAPYTFGQGTRLDIK
notes: as the VH of m3 (native VH of adalimumab); Whole antibody; also called LICHEN-2 (adalimumab)
B5: pembrolizumab (antibody, V domains shown)
VH: QVQLVQSGVEVKKPGASVKVSCKASGYTFTNYYMYWVRQAPGQGLEWMGGINPSNGGTNFNEKFKNRVTLTTDSSTTTAYMELKSLQFDDTAVYYCARRDYRFDMGFDYWGQGTTVTVSS
VL: EIVLTQSPATLSLSPGERATLSCRASKGVSTSGYSYLHWYQQKPGQAPRLLIYLASYLESGVPARFSGSGSGTDFTLTISSLEPEDFAVYYCQHSRDLPLTFGGGTKVEIK
notes: native VH of the therapeutic pembrolizumab (humanised, IGHV1); Whole antibody (detected by anti-human IgG Fc); also called therapeutic; positive control (pembrolizumab panels)
B6: pembrolizumab VH paired with germline IGKV7-3*01/IGKJ1*01 with the pembrolizumab light CDRs grafted (antibody, V domains shown)
VH: B5 VH
VL: DIVLTQSPASLAVSPGQRATITCRASKGVSTSGYSYLHWYQQKPGQPPKLLIYLASYLESGVPARFSGSGSGTDFTLTINPVEANDTANYYCQHSRDLPLTFGQGTKVEIK
notes: as the VH of m13 (native VH of pembrolizumab); germline V-gene IGKV7-3*01 combined with J-gene IGKJ1*01, all three light CDRs of pembrolizumab (Kabat definition) grafted; Whole antibody; also called Germline-3+ (pembrolizumab)
B7: pembrolizumab VH paired with germline IGKV3-11*01/IGKJ1*01 with the pembrolizumab light CDRs grafted (antibody, V domains shown)
VH: B5 VH
VL: B5 VL with V62I, G104Q
notes: as the VH of m13 (native VH of pembrolizumab); germline V-gene IGKV3-11*01 combined with J-gene IGKJ1*01, all three light CDRs of pembrolizumab (Kabat definition) grafted; Whole antibody; also called Germline-2+ (pembrolizumab)
B8: pembrolizumab VH paired with germline IGKV3-20*01/IGKJ1*01 with the pembrolizumab light CDRs grafted (antibody, V domains shown)
VH: B5 VH
VL: B5 VL with A9G, V62I, A64D, S81R, G104Q
notes: as the VH of m13 (native VH of pembrolizumab); germline V-gene IGKV3-20*01 combined with J-gene IGKJ1*01, all three light CDRs of pembrolizumab (Kabat definition) grafted; Whole antibody; also called Germline-1+ (pembrolizumab)

Molecular target: T1, TNF-α (Homo sapiens, UniProt P01375, biotinylated (said of the BLI experiment))
T1 construct: TNF-α, a pro-inflammatory cytokine, target of adalimumab; also called Purified TNF-α; biotinylated TNF-α; source: bought: Acro Biosciences (Cat #TNA-H82E3, Lot #BV2043-241DF11R8)
T1 sequence (P01375 77-233): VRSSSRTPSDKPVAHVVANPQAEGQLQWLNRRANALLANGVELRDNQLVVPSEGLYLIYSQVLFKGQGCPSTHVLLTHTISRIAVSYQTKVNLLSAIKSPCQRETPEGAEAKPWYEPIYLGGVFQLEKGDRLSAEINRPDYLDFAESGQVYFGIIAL
Assay: ELISA; screening ELISA; antigen coated at 1 µg/mL (30 ng/well) in bicarbonate coating buffer on 384-well MaxiSorp overnight at 4°C; blocked with 4% milk in PBS; antibody at 1 µg/mL in PBS, 2 h at room temperature; goat anti-human IgG Fc-HRP, TMB, absorbance at 450 nm
Details: both partners purified

binding result | Binder
binds | B1
binds | B2
binds | B3
binds | B4

Molecular target: T2, Human PD-1 (human, UniProt Q15116)
T2 construct: programmed death receptor 1 (PD-1), human, target of pembrolizumab; The printed catalogue number is that of the TNF-α product, probably a slip; also called programmed death receptor 1; Target (pembrolizumab panels); source: bought: Acro Biosciences (printed Cat #TNA-H82E3, Lot #BV2043-241DF1-1R8)
T2 sequence (Q15116 25-170): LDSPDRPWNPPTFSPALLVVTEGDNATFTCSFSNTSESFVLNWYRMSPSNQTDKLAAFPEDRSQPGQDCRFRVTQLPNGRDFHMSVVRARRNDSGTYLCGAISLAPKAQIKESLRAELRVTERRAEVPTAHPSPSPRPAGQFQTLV
Assay: as above
Details: both partners purified

binding result | Binder
binds | B5
binds | B6
binds | B7
binds | B8
